Source: the DeepSol protein solubility set

test: soluble on expression in E. coli; label from the status in PepcDB or PDB records

Soluble on expression in E. coli, soluble:
GEEEKKRTARTDYWLQPEIIVKIITKKLGEKYHKKKAIVKEVIDKYTAVVKMIDSGDKLKLDQTHLETVIPAPGKRILVLNGGYRGNEGTLESINEKTFSATIVIETGPLKGRRVEGIQYEDISKLA
MSLIRIGHGFDVHAFGEDRPLIIGGVEVPYHTGFIAHSDGDVALHALTDAILGAAALGDIGKLFPDTDMQYKNADSRGLLREAFRQVQEKGYKIGNVDITIIAQAPKMRPHIDAMRAKIAEDLQCDIEQVNVKATTTEKLGFTGRQEGIACEAVALLIRQEGGSHHHHHH
GSHMEQDLKTLPTTKITCPKCGNDTAYWWEMQTRAGDEPSTIFYKCTKCGHTWRSYE
SVIRELNKNWQSHAFDGFEVNWTEQQQMVSCLYTLGYPPAQAQGLHVTSISWNSTGSVVACAYGRLDHGDWSTLKSFVCAWNLDRRDLRPQQPSAVVEVPSAVLCLAFHPTQPSHVAGGLYSGEVLVWDLSRLEDPLLWRTGLTDDTHTDPVSQVVWLPEPGHSHRFQVLSVATDGKVLLWQGIGVGQLQLTEGFALVMQQLPRSTKLKKHPRGETEVGATAVAFSSFDPRLFILGTEGGFPLKCSLAAGEAALTRMPSSVPLRAPAQFTFSPHGGPIYSVSCSPFHRNLFLSAGTDGHVHLYSMLQAPPLTSLQLSLKYLFAVRWSPVRPLVFAAASGKGDVQLFDLQKSSQKPTVLIKQTQDESPVYCLEFNSQQTQLLAAGDAQGTVKVWQLSTEFTEQGPREAEDLDCLAAEVAA
AIAVFWGKPLASPRESPRAPGENGKRALHFCAVDEDFVRLFYSFFKSLVGKDVVVELKNDLSICGTLHSVDQYLNIKLTDISVTDPEKYPHMLSVKNCFIRGSVVRYVQLPADEVDTQLLQDAARKEALQQKQ
MSVSNMPPIDRAEQSTAHEIQQAKVIDLNDRVLNLDNPDDKMISAFANYAVQTENWQQNALQALTSDKKGLTPEKLLVLQDHVLNYNVEVSLVGTLARKIVAAVETLTRS
MKAIILAGGHSVRFGKPKAFAEVNGETFYSRVIKTLESTNMFNEIIISTNAQLATQFKYPNVVIDDENHNDKGPLAGIYTIMKQHPEEELFFVVSVDTPMITGKAVSTLYQFLVSHLIENHLDVAAFKEDGRFIPTIAFYSPNALGAITKALHSDNYSFKNIYHELSTDYLDVRDVDAPSYWYKNINYQHDLDALIQKLLEHHHHHH

Soluble on expression in E. coli, not soluble:
MAHHHHHHMSLAPNTGSVELKAYSAHASLLLARGERIDKRAFDECRLPAIVREERVGGATVAGAGDGSPQSSASSNMTSTYTVLDGKSLAAVMYTDAYGTCIQCTVQGLLGPPRPEQPAAGRLNVHVEAPFVEHLSGGATSTNYRSFQYMIASGNADLPLRQLEGYIGTVLDGCFDLSQLSIYAGEACWVLKVSVLLLSVDGGLRAGSLHAALAALHKLHLPRIRLPNGDVIEGRQVQLSCMPVACTFGFLAGAQVRLVADTTAIEEHVADGLITVVVDEAERILSVHHTGRCPLLAQALTAAAQQWAAASGSMRKALYG
MANLVYSPKDILQKEFKTKMMNGYDPIEVDEFLDNVIKDYEAYNKELLSLQEENSRLMAKLDQLSKAQPTPRVAQEVPKSAAVTNFDILKRLSNLEREVFGKKLDETPSTPVTPSAPSMPAEPANHDVDNAQTRQF
MTKNKSVARDERYYKAYLESRTISRRGLFRGLLKGVQPSTTTAPSDITAPPPLRPPYAIDEPHFQQSCTGCGVCVAACEENLIVMVNQRPALNFSTPYFSTPYCSRCQACSTACQTGALSSAEFHIAARPSVKNICQNTYIYCDSCADYCEKQALIWQANQPPTLVTELCDGCGECVFRCPARILEMQI
RKEEVLFGSFRLFTVTPVRYIKEIVTIGFPASIQNLIYASISMVLTRLVTGWGDTAVAIQRVGGQVESVSWMVGEGFAAAVNSFTGQNFGAGLFDRVKKGFSAAVK
MGSDKIHHHHHHMDEQIKKAIEAHALAEYPRECCGLVVKTESGEIYVRCRNLAAVPTDQFALASEDYAAAEDMGEIVALVHSHPGASAQPSEADRAMCERSGIEKWVIVSLGVQADGSIGIDDWCEFEPAGYVTRLIGRQFVHGVHDCYAIVRDWYLAERGVLLPDFEREDDWWNDGRSNLYLNHYQDAGFLDVGRGVTLQVGDVLLMQIRSKNDVPNHAGVYLGDGQFLHHMHGRLSARAVWGGMWADCCTTVLRYAGGRK
MLMNNNNVYSLNNFDFLARSFARMQAEGRPVDIQAVTGNMDEEHRDWFCKRYALYCQQATQAKRLELEH
MGSDKIHHHHHHMRHIAHYCVAHPAGSMVVPGTRKKRELLPSAAPWRLSGVFVSLDEIRKDWTTLGAAAPLWAVCVDPAKRHGGWDDDEFLASGRAEIDAAMARLAELGIAHGRERALDFGCGAGRLSNALAAYFDRVVGVDISAPMLAEARRLDRSGGRIDFLLNDAPDLKIFPDASFDLVYTDLVLQHLPPPLARGYLAEFARVLRPGGALVAGMPATERRTVKGLVFRYAPHRVIRFIQRVLLGYPAPMRMHTMPPEQMRELLASHGVRVVSAEEYAGDDHGTHWVHMRYYARKDPGAAL
MGHHHHHHSHMRSTGSAPSCSGESARAHRRRAGAMSIRSSRTKHSTAQKGAHRRRVSLAGFFNLIYKRQDLGLDFLREMSEPLCTSRPVLLPLNLKNIAPGRCISLTPFGHTDNLGFQCETCTDPNLNKSIPPKLEDPAFSKNELCSVTLTFYQQAEQVIQHKQFYLSLLNLSMDAVRNSLTQPGLLYCYLVTKAFMLEGFPIFFEETNGMLGLYLVFRRDLLHLHESYLRLLIDNLGNYDISVDSVGRSYIIKLCPVGNVSRIPTIPADNVCLAVNNLDYGDDVKASWIECFNIVSRLSQQ
MAVLGRKSDRAVFDDGPVPRYEAVKQFIRSRIESGEWPPHHRVPSENDIVADLGVSRMTANRALRELASEGAITRVQGVGSFVAAHKGSTALLEVRNIADEIRERGHRHTSRITLLEEEQASTEVAEALGLAAKARVFHSIIVHAEDDVPIQIEDRFVNPAICPNYLEQDFTSMTPNVYLTLVAPITRTEQIVEAVLPKPWECKLLSIGRGEPCLMIRRRTWSEAANVTVAWLTYPGTRYRLEGVSQ
MGSDKIHHHHHHMAPRTKTRERIVQASLELFNQQGERCITTNHIAAHMEISPGNLYYHFANKQVIIAELFTQYETLVGSFLTLRTDRLPTIEDKRDYFLAMIDAMWRYRFLHQDLEHLLTSDAELARRYRRFSYRCLMQAMNIYRGFIKAGILQMDESQIEWTSLNTWIVLTSWVRFLCTNRENNAELNESAIRRGVYQVLMLESVFVAPQAREAFDALCETFHSSLPEALA
MGHHHHHHSHMDIQKSENEDDSEWEDVDDEKGDSNDDYDSAGLLSDEDCMSVPGKTHRAIADHLFWSEETKSRFTEYSMTSSVMRRNEQLTLHDERFEKFYEQYDDDEIGALDNAELEGSIQVDSNRLQEVLNDYYKEKAENCVKLNTLEPLEDQDLPMNELDESEEEEMITVVLEEAKEKWDCESICSTYSNLYNHPQLIKYQPKPKQIRISSKTGIPLNVLPKKGLTAKQTERIQMINGSDLPKVSTQPRSKNESKEDKRARKQAIKEERKERRVEKKANKLAFKLEKRRQEKELLNLKKNVEGLKL
MIGDGKLLASAAWDAQSLNELKAKAGQDPAANIRPVARQVEGMFVQMMLKSMREALPKDGLFSSDQTRLYTSMYDQQIAQQMTAGKGLGLADMMVKQMTSGQTMPADDAPQVPLKFSLETVNSYQNQALTQLVRKAIPKTPDSSDAPLSGDSKDFLARLSLPARLASEQSGVPHHLILAQAALESGWGQRQILRENGEPSYNVFGVKATASWKGPVTEITTTEYENGEAKKVKAKFRVYSSYLEALSDYVALLTRNPRYAAVTTAATAEQGAVALQNAGYATDPNYARKLTSMIQQLKAMSEKVSKTYSANLDNLF
